# Measurements: patent US20240190946A1 (AUGMENTA BIOWORKS, published 2024)
# B1: SC2 antibody 3396 (antibody, V domains shown)
# VH: GVQLVESGGGLVQPGRSLRVSCAASGFTFADYAMHWVRQAPGKGLEWVSGISWNSGNIAYADSVKGRFTISRDNAKNSLYLQMDSLRPDDTALYYCVKASTLYYYFYMDVWGKGTTVTVSS
# VL: QSALTQPPSASGSPGQSVTISCTGTSSDVGGYDYVSWYQQHPGKAPKFMIYEVSKRPSGVPDRFSGSKSGNTASLTVSGLQAEDEADYYCCSYAGSNNYVFGTGTKVTVLG
# notes: also called Anti-SARS-COV-2 antibody 3396
# Molecular target: T1, NAC CoV2 Mosaic (SARS-COV-2)
# T1 construct: also called NAC Mosaic (The Native Antigen Company)
# Test: ForteBio
binder,measurement,value
B1,Kd,21 nM
